Values joined by “and” are separate entries in the source; they are usually repeats but may differ in a detail not shown here. Identical values can stand only once. Like-named read-outs stand apart in the source and are kept apart here.
Tests used:
human alpha-synuclein [1] = target: T1, human alpha-synuclein (human, UniProt P37840 1-140); experiment: SPR Biacore 3000, synuclein ligand format
human alpha-synuclein [2] = target: T1, human alpha-synuclein; experiment: SPR Biacore 3000, IgG captured by anti-human IgG on CM5 chip
human alpha-synuclein [3] = target: T1, human alpha-synuclein; experiment: as above; remark: listed apart in the source
human beta-synuclein [4] = target: T2, human beta-synuclein (human, UniProt Q16143 1-134); experiment: Octet (ForteBio), antibody coupled to amine-reactive sensors, synuclein in solution [continued), Human beta-syn]
T2 construct: Screening ligand; also called Beta Panel
T2 sequence (Q16143 whole entry): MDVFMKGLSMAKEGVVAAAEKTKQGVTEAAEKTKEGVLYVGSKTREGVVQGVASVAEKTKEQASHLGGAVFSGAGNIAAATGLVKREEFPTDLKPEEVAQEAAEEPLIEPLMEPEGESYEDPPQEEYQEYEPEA

human gamma-synuclein [5] = target: T3, human gamma-synuclein (human, UniProt O76070 1-127); experiment: Octet (ForteBio), antibody coupled to amine-reactive sensors, synuclein in solution [continued), Human gamma-syn]
T3 construct: Screening ligand; also called Gamma Panel
T3 sequence (O76070 whole entry): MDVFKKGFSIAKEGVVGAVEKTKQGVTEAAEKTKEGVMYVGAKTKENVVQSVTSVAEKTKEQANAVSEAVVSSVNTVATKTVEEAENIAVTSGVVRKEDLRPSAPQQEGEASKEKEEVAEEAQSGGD

human alpha-synuclein [6] = target: T1, human alpha-synuclein; experiment: SPR BIAcore 3000, antibody captured by goat anti-human IgG on CM5 chip, human alpha-synuclein as analyte; calculated binding constants [continued) C]
human alpha-synuclein [7] = target: T1, human alpha-synuclein; experiment: SPR BIAcore T200, human alpha-synuclein immobilised, antibody as analyte, 1:1 binding fit
human beta-synuclein [8] = target: T2, human beta-synuclein; experiment: Octet (ForteBio), antibody coupled to amine-reactive sensors, synuclein in solution [Human beta-syn]
From the text: (§1) Amine reactive sensors (ForteBio, art. no. 18-0008) were used for immobilization of HuMabs. […] Activated sensors were immobilized with HuMabs during 600 seconds.

human gamma-synuclein [9] = target: T3, human gamma-synuclein; experiment: Octet (ForteBio), antibody coupled to amine-reactive sensors, synuclein in solution [continued), Human gamma-syn]; remark: listed apart in the source
From the text: as §1

human alpha-synuclein [10] = target: T1, human alpha-synuclein; experiment: SPR BIAcore 3000, antibody captured by goat anti-human IgG on CM5 chip, human alpha-synuclein as analyte; calculated binding constants [continued) C]; remark: listed apart in the source
human alpha-synuclein [11] = target: T1, human alpha-synuclein; experiment: as above; remark: listed apart in the source

B1: ch2E6 (antibody, V domains shown)
VH: QVQLQQPGAELVKPGASVKLSCTASGYTFTSYWMHWMKQRPGRGLEWIGRIDPNSGTTKYNVNFKTKATLTVDKPSSTAYMHLSSLTSEDSAVYYCARLGHYGNLYAMDYWGQGTSVT
VL: QIVLTQSPAIMSASPGEKVTMTCSASSSVSYMHWYQQKSGTSPKRWIYDTSKLASGVPTRFSGSGSGTSYSLTISSMDTEDAATYYCQQWSSNPPTFGAGTKLELK
notes: also called chimeric 2E6
- KD improvement (human alpha-synuclein [1]): 1 fold
- Ka (human alpha-synuclein [1]): 2.38e+08 M⁻¹
- Kd (human alpha-synuclein [1]): 4.21 nM
- koff (human alpha-synuclein [1]): 0.000265 s⁻¹
- kon (human alpha-synuclein [1]): 62900 M⁻¹ s⁻¹
- KD improvement (human alpha-synuclein [2]): 1 fold
- Ka (human alpha-synuclein [2]): 1.76e+07 M⁻¹
- Kd (human alpha-synuclein [2]): 56.7 nM
- koff (human alpha-synuclein [2]): 0.00139 s⁻¹
- kon (human alpha-synuclein [2]): 24500 M⁻¹ s⁻¹
- KD improvement (human alpha-synuclein [3]): 1 fold
- Ka (human alpha-synuclein [3]): 1.76e+07 M⁻¹
- Kd (human alpha-synuclein [3]): 56.7 nM
- koff (human alpha-synuclein [3]): 0.00139 s⁻¹
- kon (human alpha-synuclein [3]): 24500 M⁻¹ s⁻¹

B2: GM285 (antibody, V domains shown)
VH: EVQLLESGGGLVQPGGSLRLSCAASGFTFSRFTMTWVRQAPGKGLEWVSAISGSGGGTSYADSVKGRLTVSRDNSKNTLYLQMNSLRAEDTAVYYCAKNWAPFDYWGQGTLVT
VL: not shown
notes: Human IgG1/kappa
- binding result (human beta-synuclein [4]): no binding
- binding result (human gamma-synuclein [5]): no binding
- Ka (human alpha-synuclein [6]): 2.33e+08 M⁻¹
- Kd (human alpha-synuclein [6]): 4.3 nM

B3: GM37 (antibody, V domains shown)
VH: EVQLLESGGGLVQTGGSLRLSCAASGFTFSSYAMTWVRQAPGKGLEWVSAIRSNGDRTDYADSVKGRFTISRDNSQNTLYLQMNSLRAEDTAVYYCAKNWAPFDSWGQGTLVT
VL: not shown
notes: also called GM37wt; GM37 wt
- Kd (human alpha-synuclein [7]): 27 nM and 28 nM
- koff (human alpha-synuclein [7]): 0.0192 s⁻¹ and 0.0148 s⁻¹
- kon (human alpha-synuclein [7]): 701000 M⁻¹ s⁻¹ and 528000 M⁻¹ s⁻¹
- binding result (human beta-synuclein [8]): no binding
- binding result (human gamma-synuclein [9]): no binding
- Ka (human alpha-synuclein [10]): 2.33e+08 M⁻¹
- Kd (human alpha-synuclein [10]): 4.29 nM

B4: GM37 variant 1 (antibody, V domains shown)
VH: EVQLLESGGGLVQTGGSLRLSCAASGFTFSSYAMTWVRQAPGKGLEWVSAIRSSGDRTDYADSVKGRFTISRDNSQNTLYLQMNSLRAEDTAVYYCAKNWAPFDSWGQGTLVT
VL: not shown
- Kd (human alpha-synuclein [7]): 22 nM
- koff (human alpha-synuclein [7]): 0.0137 s⁻¹
- kon (human alpha-synuclein [7]): 634000 M⁻¹ s⁻¹

B5: GM37 variant 3 (antibody, V domains shown)
VH: EVQLLESGGGLVQTGGSLRLSCAASGFTFSSYAMTWVRQAPGKGLEWVSAIRSHGDRTDYADSVKGRFTISRDNSQNTLYLQMNSLRAEDTAVYYCAKNWAPFDSWGQGTLVT
VL: not shown
- Kd (human alpha-synuclein [7]): 40 nM
- koff (human alpha-synuclein [7]): 0.0228 s⁻¹
- kon (human alpha-synuclein [7]): 577000 M⁻¹ s⁻¹

B6: 9E4 (antibody, V domains shown)
VH: EVQLVESGGGLVQPGGSLRLSCAASGFTFSNYGMSWVRQAPGKGLEWVASISSGGGSTYYPDNVKGRFTISRDNAKNSLYLQMNSLRAEDTAVYYCARGGAGIDYWGQGTLVTVSS
VL: DIQMTQSPSSLSASVGDRVTITCKSIQTLLYSSNQKNYLAWFQQKPGKAPKLLIYWASIRKSGVPSRFSGSGSGTDFTLTISSLQPEDLATYYCQQYYSYPLTFGGGTKLEIKR
notes: Generated from the VH and VL of hybridoma PTA-8221; also called comparator antibody 9E4
- Ka (human alpha-synuclein [11]): 2.58e+08 M⁻¹
- Kd (human alpha-synuclein [11]): 3.88 nM

B7: 2E6-HLD-1 (antibody, V domains shown)
VH: QVQLVQSGAEVKKPGASVKVSCKASGYTFTSYWMHWMRQAPGQGLEWIGRIDPNSGTTKYNVNFKTRATLTVDKSTSTAYMELSSLRSEDTAVYYCARLGHYGNLYAMDYWGQGTLVT
VL: EIVLTQSPATLSLSPGERATLSCSASSSVSYMHWYQQKPGQAPRRWIYDTSKLASGVPARFSGSGSGTDYTLTISSLEPEDFAVYYCQQWSSNPPTFGQGTKLEIKR
notes: Humanized 2E6 tested as IgG; also called Humanized HLD-1
- KD improvement (human alpha-synuclein [1]): 2 fold
- Ka (human alpha-synuclein [1]): 5.81e+08 M⁻¹
- Kd (human alpha-synuclein [1]): 1.72 nM
- koff (human alpha-synuclein [1]): 0.000212 s⁻¹
- kon (human alpha-synuclein [1]): 123000 M⁻¹ s⁻¹
- KD improvement (human alpha-synuclein [2]): 2.5 fold
- Ka (human alpha-synuclein [2]): 4.4e+07 M⁻¹
- Kd (human alpha-synuclein [2]): 22.7 nM
- koff (human alpha-synuclein [2]): 0.000944 s⁻¹
- kon (human alpha-synuclein [2]): 41600 M⁻¹ s⁻¹
- KD improvement (human alpha-synuclein [3]): 2.5 fold
- Ka (human alpha-synuclein [3]): 4.4e+07 M⁻¹
- Kd (human alpha-synuclein [3]): 22.7 nM
- koff (human alpha-synuclein [3]): 0.000944 s⁻¹
- kon (human alpha-synuclein [3]): 41600 M⁻¹ s⁻¹

B8: 9C12 (antibody, V domains shown)
VH: QVQLVQSGAEVKKPGASVKVSCKASGYTFTSYWMHWMRQAPGQGLEWIGRIDPNSGTTKYNVNIKTRATLTVDKSTSTAYMELSSLRSEDTAVYYCARLGHYGNLYAMDYWGQGTLVT
VL: EIVLTQSPATLSLSPGERATLSCSASSSVSYMHWYQQKPGQAPRRLIYDTSKLASGVPARFSGSGSGTDYTLTISSLEPEDFAVYYCQQWSSNPPTFGQGTKLEIK
- KD improvement (human alpha-synuclein [2]): 10 fold
- Ka (human alpha-synuclein [2]): 1.78e+08 M⁻¹
- Kd (human alpha-synuclein [2]): 5.62 nM
- koff (human alpha-synuclein [2]): 0.000278 s⁻¹
- kon (human alpha-synuclein [2]): 49500 M⁻¹ s⁻¹

B9: 2E6 HLD 3 (antibody, V domains shown)
VH: QVQLVQSGAEVKKPGASVKVSCKASGYTFTSYWMHWMRQAPGQGLEWIGRIDPNSGTTKYNVNFKTRVTLTVDKSTSTAYMELSSLRSEDTAVYYCARLGHYGNLYAMDYWGQGTLVT
VL: EIVLTQSPATLSLSPGERATLSCSASSSVSYMHWYQQKPGQAPRRWIYDTSKLASGVPARFSGSGSGTDYTLTISSLEPEDFAVYYCQQWSSNPPTFGQGTKLEIKR
- KD improvement (human alpha-synuclein [1]): 1 fold
- Ka (human alpha-synuclein [1]): 1.88e+08 M⁻¹
- koff (human alpha-synuclein [1]): 0.00026 s⁻¹
- kon (human alpha-synuclein [1]): 48900 M⁻¹ s⁻¹

B10: 2E6-HLD-2 (antibody, V domains shown)
VH: QVQLVQSGAEVKKPGASVKVSCKASGYTFTSYWMHWVRQAPGQGLEWIGRIDPNSGTTKYNVNFKTRATLTVDKSTSTAYMELSSLRSEDTAVYYCARLGHYGNLYAMDYWGQGTLVT
VL: EIVLTQSPATLSLSPGERATLSCSASSSVSYMHWYQQKPGQAPRRWIYDTSKLASGVPARFSGSGSGTDYTLTISSLEPEDFAVYYCQQWSSNPPTFGQGTKLEIKR
notes: Humanized 2E6
- KD improvement (human alpha-synuclein [1]): 1 fold
- Ka (human alpha-synuclein [1]): 2.04e+08 M⁻¹
- Kd (human alpha-synuclein [1]): 4.91 nM
- koff (human alpha-synuclein [1]): 0.000285 s⁻¹
- kon (human alpha-synuclein [1]): 58000 M⁻¹ s⁻¹

B11: 8D9 (antibody, V domains shown)
VH: QVQLVQSGAEVKKPGASVKVSCKASGYTFTSYWMHWMRQAPGQGLEWIGRIDPNSGTTKYNVNFKTRATLTVDKSTSTAYMELSSLRSEDTAVYYCARLGHYGNLYAKDYWGQGTLVT
VL: EIVLTQSPATLSLSPGERATLSCSASSSVSYIHWYQQKPGQAPRRWIYDTSKLASGVPARFSGSGSGTDYTLTISSLEPEDFAVYYCQQWSSNPPTFGQGTKLEIK
- KD improvement (human alpha-synuclein [2]): 8.7 fold
- Ka (human alpha-synuclein [2]): 1.53e+08 M⁻¹
- Kd (human alpha-synuclein [2]): 6.52 nM
- koff (human alpha-synuclein [2]): 0.000483 s⁻¹
- kon (human alpha-synuclein [2]): 74100 M⁻¹ s⁻¹

B12: 7C4 (antibody, V domains shown)
VH: QVQLVQSGAEVKKPGASVKVSCKASGYTFTRYWMHWMRQAPGQGPEWIGRIDPNSGTTKYNVNFKTRATLTVDKSTSTAYMELSSLRSEDTAVYYCARLGHYGNLYAMDYWGQGTLVT
VL: EIVLTQSPATLSLSPGERATLSCSASSSVSFMHWYQQKPGQAPRRWIYDTSKLASGVPARFSGSGSGTDYTLTISSLEPEDFAVYYCQQWSSNPPTFGQGTKLEIK
- KD improvement (human alpha-synuclein [2]): 7 fold
- Ka (human alpha-synuclein [2]): 1.23e+08 M⁻¹
- Kd (human alpha-synuclein [2]): 8.12 nM
- koff (human alpha-synuclein [2]): 0.000997 s⁻¹
- kon (human alpha-synuclein [2]): 123000 M⁻¹ s⁻¹
